According to patent publication EP1142907A1:

Target: GAL4-CREBΔLZ fusion protein
Assay: cell-based or functional assay

transcriptional coactivator CBP (CREB-binding protein)
transactivation of the pG5CAT reporter after caffeine in HEK293 cells: < 45 fold
